Series [1] has as its target T1, hen egg white lysozyme (UniProt P00698 P00698:19-147). Put plainly: competition. As to the method:
(§1) Ligation assays. In one example, 10 pmol of [³²P]-body-labeled ribozyme and 20 pmol effector oligonucleotide were denatured for 3 min at 70° C. in 5 μl water. The RNA mixture was cooled to room temperature followed by addition of ligation buffer and target protein (20 pmol unless otherwise stated, or water in place of ligand, in the case of […]). After a 5 min equilibration at room temperature, reactions were initiated by the addition of 20 pmol substrate oligonucleotide (S28A) in a final volume of 15 μl. Reactions were incubated at 25° C., and 4 μl aliquots were removed at three appropriate time points and terminated by the addition of 18 μl of SDS stop mix (100 mM EDTA, 80% formamide, 0.8% SDS, 0.05% bromophenol blue, 0.05% xylene cyanol). Samples were denatured for 3 min at 70° C., ligated and unligated species were separated from one another on 8% polyacrylamide gels containing 0.1% SDS, and the amounts of products formed were determined using a Phosphorimager (Molecular Dynamics, Sunnyvale, Calif.). Assays performed over a broad range of protein concentrations (e.g, FIG. 21) differed from typical reaction conditions in that only 1 pmol ribozyme was present in a 10 μl final volume.
(§2) Competition assays. Ligation assays were performed as described above, using 10 pmol of [³²P]-body-labeled ribozyme (cyt7-2 or lys11-2; […]) and 20 pmol effector oligonucleotide (2 μM). The denatured and annealed RNA mixture was combined with ligation buffer, 20 pmol protein (Cyt18, lysozyme, or water in the case of (−) protein samples; 2 μM), and 30 pmol of denatured and annealed competitor RNA (3 μM).

Series [2] deals with T2, Cyt18 (mitochondrial tyrosyl-tRNA synthetase, CYT-18) (Neurospora crassa, UniProt P12063 P12063:33-669).
T2 sequence: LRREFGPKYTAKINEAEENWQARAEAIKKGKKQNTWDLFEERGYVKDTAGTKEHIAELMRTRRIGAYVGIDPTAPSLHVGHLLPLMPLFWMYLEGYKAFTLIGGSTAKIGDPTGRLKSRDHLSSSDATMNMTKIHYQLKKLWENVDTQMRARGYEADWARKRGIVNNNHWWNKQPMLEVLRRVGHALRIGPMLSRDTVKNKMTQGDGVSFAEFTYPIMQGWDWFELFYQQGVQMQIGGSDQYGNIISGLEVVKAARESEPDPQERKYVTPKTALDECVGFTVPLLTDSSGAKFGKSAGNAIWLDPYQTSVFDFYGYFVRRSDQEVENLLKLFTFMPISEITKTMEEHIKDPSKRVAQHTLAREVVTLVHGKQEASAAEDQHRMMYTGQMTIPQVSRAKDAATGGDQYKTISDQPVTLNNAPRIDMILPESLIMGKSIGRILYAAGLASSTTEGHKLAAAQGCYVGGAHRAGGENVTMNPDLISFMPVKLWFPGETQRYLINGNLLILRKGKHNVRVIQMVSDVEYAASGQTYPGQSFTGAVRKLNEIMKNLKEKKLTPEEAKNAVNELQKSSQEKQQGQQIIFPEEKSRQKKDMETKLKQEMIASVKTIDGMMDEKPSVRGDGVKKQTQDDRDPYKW
Nature of the series: competition. The conditions noted are these: chain copies: 2. As to the method: as §1, §2

The target of series [3] is T1, hen egg white lysozyme. Nature of the series: competition; no appreciable inhibition of lys11-2 activation. The protocol:
as §1
(§3) Competition assays. Ligation assays were performed as described above, using 10 pmol of [³²P]-body-labeled ribozyme (cyt7-2 or lys11-2; […]) and 20 pmol effector oligonucleotide (2 μM). […]

Series [4] has as its target T2, Cyt18 (mitochondrial tyrosyl-tRNA …). Put plainly: competition; greatest reduction of Cyt18 activation of cyt7-2; 3 uM competitor. The conditions noted are these: chain copies: 2. As to the method:
as §1, §3

B1: B17 (ssRNA)
RNA: GGGAAUGGAUCCACAUCUACGAAUUCGUAGCGUAGAGUAUGAGAGAGCCAAGGUCAGGUUCACUCCAGACUUGACGAAGCUU
As for B1, the binding result with hen egg white lysozyme [1] is listed as “no binding”.

B2: M12 (ssRNA)
RNA: GGGAAUGGAUCCACAUCUACGAAUUCGAGUCGAGAACUGGUGCGAAUGCGAGUAAGUUCACUCCAGACUUGACGAAGCUU
Consider B2, for which the binding result is reported as “binds” in series [2] and “no binding” with hen egg white lysozyme [1].

B3: c1 (ssRNA)
RNA: GGGAAUGGAUCCACAUCUACGAAUUCAUCAGGGCUAAAGAGUGCAGAGUUACUUAGUUCACUCCAGACUUGACGAAGCUU
Turning to B3, the binding result with hen egg white lysozyme [1] was “binds”.

B4: ND1 group I intron (ssRNA)
RNA: GACUAAUAUGAUUUGGUCUCAUUAAAGAUCACAAAUUGCUGGAAACUCCUUUGAGGCUAGGACAAUCAGCAAGGAAGUUAACAUAUAAUGUUAAAACCUUCAGAGACUAGACGUGAUCAUUUAAUAGACGCCUUGCGGCUCUUAUUAGAUAAGGUAUAGUCCAAAUUUGUAUGUAAAUACAAAAUGAUAAAAAAAAAUGAAAUCAUAUGGG
Take B4: the figures for the binding result (with hen egg white lysozyme [3]; in series [4]) were “no binding” and “binds”, respectively.

The values above are taken from US20040126882, “Regulatable, catalytically active nucleic acids” (published 2004).
